Measured values published in patent US20100260668A1 (published 2010).

Key:
[1] = target: T1, VEGF (VEGF 1-165 aa, R&D Systems 293-VE-010) (UniProt P15692 27-191); assay: Direct bind ELISA, VEGF coated on plate; VEGF domain C-term., HC long/LC long
T1 construct: bought reagent; also called vascular endothelial growth factor

[2] = target: T1, VEGF (VEGF 1-165 aa, R&D Systems …); assay: Direct bind ELISA, VEGF coated on plate; VEGF domain C-term., HC short/LC short
[3] = target: T1, VEGF (VEGF 1-165 aa, R&D Systems …); assay: Direct bind ELISA, VEGF coated on plate; VEGF domain C-term., HC long/LC short
[4] = target: T1, VEGF (VEGF 1-165 aa, R&D Systems …); assay: Direct bind ELISA, VEGF coated on plate; VEGF domain N-term., HC short/LC short
recombinant human HGF = target: T2, recombinant human HGF (human, UniProt P14210 32-728); assay: competition ELISA: DVD-Ig co-incubated with 2 nM soluble c-Met Fc on coated HGF (competitor c-Met Fc)
T2 construct: The target there is entered as this HGF; also called hepatocyte growth factor

[5] = target: T1, VEGF (VEGF 1-165 aa, R&D Systems …); assay: Direct bind ELISA, VEGF coated on plate; VEGF domain N-term., HC long/LC short

T1 sequence (P15692 other isoform, or with tags, fused parts or gaps limits assumed): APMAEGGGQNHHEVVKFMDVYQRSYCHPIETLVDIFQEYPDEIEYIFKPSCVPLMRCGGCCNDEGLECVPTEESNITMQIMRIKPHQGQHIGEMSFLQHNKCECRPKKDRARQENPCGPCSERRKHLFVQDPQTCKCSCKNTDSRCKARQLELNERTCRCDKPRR
T2 sequence (P14210 32-728 limits assumed): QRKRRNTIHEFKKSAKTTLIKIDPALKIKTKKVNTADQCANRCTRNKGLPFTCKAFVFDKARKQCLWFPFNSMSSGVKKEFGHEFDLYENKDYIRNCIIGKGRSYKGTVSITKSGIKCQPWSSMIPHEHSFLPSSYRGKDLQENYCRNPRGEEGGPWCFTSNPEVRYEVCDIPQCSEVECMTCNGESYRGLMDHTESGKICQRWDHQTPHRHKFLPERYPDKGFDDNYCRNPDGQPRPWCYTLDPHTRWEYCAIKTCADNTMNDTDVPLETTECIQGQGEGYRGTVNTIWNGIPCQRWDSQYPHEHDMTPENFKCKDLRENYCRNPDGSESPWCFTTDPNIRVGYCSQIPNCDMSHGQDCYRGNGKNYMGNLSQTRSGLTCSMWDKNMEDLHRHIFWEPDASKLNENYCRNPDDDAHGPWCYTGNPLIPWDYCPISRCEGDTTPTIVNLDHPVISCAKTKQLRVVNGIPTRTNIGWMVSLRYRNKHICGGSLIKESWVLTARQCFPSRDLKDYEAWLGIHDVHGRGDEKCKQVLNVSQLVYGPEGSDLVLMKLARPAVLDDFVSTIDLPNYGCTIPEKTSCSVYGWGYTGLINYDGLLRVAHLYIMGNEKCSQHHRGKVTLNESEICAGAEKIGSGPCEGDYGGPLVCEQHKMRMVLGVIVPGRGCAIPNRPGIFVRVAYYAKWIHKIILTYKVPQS

B1: DVD497 (bispecific antibody, human IgG1, kappa)
heavy: not shown
light: DIQMTQSSSYLSVSLGGRVTITCKASDHINNWLAWYQQKPGNAPRLLISGATSLETGVPSRFSGSGSGKDYTLSITSLQTEDVATYYCQQYWSIPLTFGAGTKLELKRTVAAPSVFIFPPDIQMTQSPSSLSASVGDRVTITCRASQVIRRSLAWYQQKPGKAPKLLIYAASNLASGVPSRFSGSGSGTDFTLTISSLQPEDFATYYCQQSNTSPLTFGQGTKVEIKRTVAAPSVFIFPPSDEQLKSGTASVVCLLNNFYPREAKVQWKVDNALQSGNSQESVTEQDSKDSTYSLSSTLTLSKADYEKHKVYACEVTHQGLSSPVTKSFNRGEC
notes: DVD-Ig; N-term; AB072 (DLL4), C-term; AB071 (VEGF); HC linker long, LC linker long; also called DVD-Ig DVD497; DVD497H/DVD497L
With B1 the EC50 [1] was 0.858 µM.

B2: DVD491 (bispecific antibody, human IgG1, kappa)
heavy: not shown
light: DIQMTQSSSYLSVSLGGRVTITCKASDHINNWLAWYQQKPGNAPRLLISGATSLETGVPSRFSGSGSGKDYTLSITSLQTEDVATYYCQQYWSIPLTFGAGTKLELKRTVAAPDIQMTQSPSSLSASVGDRVTITCRASQVIRRSLAWYQQKPGKAPKLLIYAASNLASGVPSRFSGSGSGTDFTLTISSLQPEDFATYYCQQSNTSPLTFGQGTKVEIKRTVAAPSVFIFPPSDEQLKSGTASVVCLLNNFYPREAKVQWKVDNALQSGNSQESVTEQDSKDSTYSLSSTLTLSKADYEKHKVYACEVTHQGLSSPVTKSFNRGEC
notes: DVD-Ig; N-term; AB072 (DLL4), C-term; AB071 (VEGF); HC linker short, LC linker short; also called DVD-Ig DVD491; DVD491H/DVD491L
B2 was tested, and the EC50 [2] was 1.25 µM.

B3: DVD503 (bispecific antibody, human IgG1, kappa)
heavy: not shown
light: B2 light
notes: DVD-Ig; N-term; AB072 (DLL4), C-term; AB071 (VEGF); HC linker long, LC linker short; also called DVD-Ig DVD503; DVD503H/DVD503L
With B3 the EC50 [3] was 0.43 µM.

B4: DVD492 (bispecific antibody, human IgG1, kappa)
heavy: not shown
light: DIQMTQSPSSLSASVGDRVTITCRASQVIRRSLAWYQQKPGKAPKLLIYAASNLASGVPSRFSGSGSGTDFTLTISSLQPEDFATYYCQQSNTSPLTFGQGTKVEIKRTVAAPDIQMTQSSSYLSVSLGGRVTITCKASDHINNWLAWYQQKPGNAPRLLISGATSLETGVPSRFSGSGSGKDYTLSITSLQTEDVATYYCQQYWSIPLTFGAGTKLELKRTVAAPSVFIFPPSDEQLKSGTASVVCLLNNFYPREAKVQWKVDNALQSGNSQESVTEQDSKDSTYSLSSTLTLSKADYEKHKVYACEVTHQGLSSPVTKSFNRGEC
notes: DVD-Ig; N-term; AB071 (VEGF), C-term; AB072 (DLL4); HC linker short, LC linker short; also called DVD-Ig DVD492; DVD492H/DVD492L
Work on B4 yielded an EC50 [4] of 0.00842 µM.

B5: DVD034 (HGF (seq. 1) N-terminal / RON (seq. 1) C-terminal DVD-Ig) (bispecific antibody, human IgG1, kappa)
heavy: not shown
light: DIQMTQSPSSVSASVGDRVTITCRASQGISSWLAWYQQKPGKAPNLLIYEASSLQSGVPSRFGGSGSGTDFTLTISSLQPEDFATYYCQQANGFPWTFGQGTKVEIKRTVAAPDVVMTQSPLSLPVTPGEPASISCRSSQSLLHSNGFNYVDWYLQKPGQSPHLLIYFGSYRASGVPDRFSGSGSGTDFTLKISRVEAEDVGVYYCMQALQTPPWTFGQGTKVEIRRTVAAPSVFIFPPSDEQLKSGTASVVCLLNNFYPREAKVQWKVDNALQSGNSQESVTEQDSKDSTYSLSSTLTLSKADYEKHKVYACEVTHQGLSSPVTKSFNRGEC
notes: also called DVD034H/DVD034L
Binder B5 has an IC50 (recombinant human HGF) of 0.00034 µM.

B6: DVD514 (bispecific antibody, human IgG1, lambda)
heavy: not shown
light: DIQMTQSPSSLSASVGDRVTITCRASQDVSTAVAWYQQKPGKAPKLLIYSASFLYSGVPSRFSGSGSGTDFTLTISSLQPEDFATYYCQQSYTTPPTFGQGTKVEIKRTVAAPQAVVTQESALTTSPGETVTLTCRSSTGAVTTSNYANWVQEKPDHLFTGLIGGTNNRAPGVPARFSGSLIGDKAALTITGAQTEDEAIYFCALWYSNHWVFGGGTKLTVLGQPKAAPSVTLFPPSSEELQANKATLVCLISDFYPGAVTVAWKADSSPVKAGVETTTPSKQSNNKYAASSYLSLTPEQWKSHRSYSCQVTHEGSTVEKTVAPTECS
notes: DVD-Ig; N-term; AB070 (VEGF), C-term; AB073 (DLL4); HC linker short, LC linker short; also called DVD-Ig DVD514; DVD514H/DVD514L
In the case of B6, the EC50 [4] is reported as 0.0674 µM.

B7: DVD526 (bispecific antibody, human IgG1, lambda)
heavy: not shown
light: B6 light
notes: DVD-Ig; N-term; AB070 (VEGF), C-term; AB073 (DLL4); HC linker long, LC linker short; also called DVD-Ig DVD526; DVD526H/DVD526L
Work on B7 yielded an EC50 [5] of 0.0962 µM.

B8: DVD489 (bispecific antibody, human IgG1, kappa, L234A L235A)
heavy: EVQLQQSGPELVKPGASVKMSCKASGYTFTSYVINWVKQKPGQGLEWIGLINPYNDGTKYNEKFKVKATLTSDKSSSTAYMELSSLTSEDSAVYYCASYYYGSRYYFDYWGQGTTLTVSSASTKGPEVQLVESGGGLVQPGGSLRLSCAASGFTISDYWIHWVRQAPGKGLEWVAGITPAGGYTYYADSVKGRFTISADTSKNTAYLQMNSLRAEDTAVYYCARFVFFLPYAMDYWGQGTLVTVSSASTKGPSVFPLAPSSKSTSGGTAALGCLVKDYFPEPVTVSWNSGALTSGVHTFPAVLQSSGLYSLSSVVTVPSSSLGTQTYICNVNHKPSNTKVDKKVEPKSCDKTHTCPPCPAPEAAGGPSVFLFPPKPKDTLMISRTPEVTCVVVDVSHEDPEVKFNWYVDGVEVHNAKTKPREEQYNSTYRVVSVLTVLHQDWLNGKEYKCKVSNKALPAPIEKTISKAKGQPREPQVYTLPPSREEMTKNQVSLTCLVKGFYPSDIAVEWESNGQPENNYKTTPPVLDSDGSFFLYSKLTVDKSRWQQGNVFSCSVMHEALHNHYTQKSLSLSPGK
light: DIQMTQSSSYLSVSLGGRVTITCKASDHINNWLAWYQQKPGNAPRLLISGATSLETGVPSRFSGSGSGKDYTLSITSLQTEDVATYYCQQYWSIPLTFGAGTKLELKRTVAAPDIQMTQSPSSLSASVGDRVTITCRASQDVSTAVAWYQQKPGKAPKLLIYSASFLYSGVPSRFSGSGSGTDFTLTISSLQPEDFATYYCQQSYTTPPTFGQGTKVEIKRTVAAPSVFIFPPSDEQLKSGTASVVCLLNNFYPREAKVQWKVDNALQSGNSQESVTEQDSKDSTYSLSSTLTLSKADYEKHKVYACEVTHQGLSSPVTKSFNRGEC
notes: DVD-Ig; N-term; AB072 (DLL4), C-term; AB070 (VEGF); HC linker short, LC linker short; also called DVD-Ig DVD489; DVD489H/DVD489L
For B8, the EC50 [2] was 0.181 µM.

B9: DVD501 (bispecific antibody, human IgG1, kappa)
heavy: not shown
light: B8 light
notes: DVD-Ig; N-term; AB072 (DLL4), C-term; AB070 (VEGF); HC linker long, LC linker short; also called DVD-Ig DVD501; DVD501H/DVD501L
For B9, the EC50 [3] was 0.0452 µM.

B10: DVD490 (bispecific antibody, human IgG1, kappa)
heavy: not shown
light: DIQMTQSPSSLSASVGDRVTITCRASQDVSTAVAWYQQKPGKAPKLLIYSASFLYSGVPSRFSGSGSGTDFTLTISSLQPEDFATYYCQQSYTTPPTFGQGTKVEIKRTVAAPDIQMTQSSSYLSVSLGGRVTITCKASDHINNWLAWYQQKPGNAPRLLISGATSLETGVPSRFSGSGSGKDYTLSITSLQTEDVATYYCQQYWSIPLTFGAGTKLELKRTVAAPSVFIFPPSDEQLKSGTASVVCLLNNFYPREAKVQWKVDNALQSGNSQESVTEQDSKDSTYSLSSTLTLSKADYEKHKVYACEVTHQGLSSPVTKSFNRGEC
notes: DVD-Ig; N-term; AB070 (VEGF), C-term; AB072 (DLL4); HC linker short, LC linker short; also called DVD-Ig DVD490; DVD490H/DVD490L
B10 gave an EC50 [4] of 0.0067 µM.

B11: DVD513 (bispecific antibody, human IgG1, kappa)
heavy: not shown
light: QAVVTQESALTTSPGETVTLTCRSSTGAVTTSNYANWVQEKPDHLFTGLIGGTNNRAPGVPARFSGSLIGDKAALTITGAQTEDEAIYFCALWYSNHWVFGGGTKLTVLGQPKAAPDIQMTQSPSSLSASVGDRVTITCRASQDVSTAVAWYQQKPGKAPKLLIYSASFLYSGVPSRFSGSGSGTDFTLTISSLQPEDFATYYCQQSYTTPPTFGQGTKVEIKRTVAAPSVFIFPPSDEQLKSGTASVVCLLNNFYPREAKVQWKVDNALQSGNSQESVTEQDSKDSTYSLSSTLTLSKADYEKHKVYACEVTHQGLSSPVTKSFNRGEC
notes: DVD-Ig; N-term; AB073 (DLL4), C-term; AB070 (VEGF); HC linker short, LC linker short; also called DVD-Ig DVD513; DVD513H/DVD513L
In the case of B11, the EC50 [2] is reported as 0.0585 µM.

B12: DVD525 (bispecific antibody, human IgG1, kappa)
heavy: not shown
light: B11 light
notes: DVD-Ig; N-term; AB073 (DLL4), C-term; AB070 (VEGF); HC linker long, LC linker short; also called DVD-Ig DVD525; DVD525H/DVD525L
Binder B12 has an EC50 [3] of 0.0218 µM.

B13: DVD495 (bispecific antibody, human IgG1, kappa)
heavy: not shown
light: DIQMTQSSSYLSVSLGGRVTITCKASDHINNWLAWYQQKPGNAPRLLISGATSLETGVPSRFSGSGSGKDYTLSITSLQTEDVATYYCQQYWSIPLTFGAGTKLELKRTVAAPSVFIFPPDIQMTQSPSSLSASVGDRVTITCRASQDVSTAVAWYQQKPGKAPKLLIYSASFLYSGVPSRFSGSGSGTDFTLTISSLQPEDFATYYCQQSYTTPPTFGQGTKVEIKRTVAAPSVFIFPPSDEQLKSGTASVVCLLNNFYPREAKVQWKVDNALQSGNSQESVTEQDSKDSTYSLSSTLTLSKADYEKHKVYACEVTHQGLSSPVTKSFNRGEC
notes: DVD-Ig; N-term; AB072 (DLL4), C-term; AB070 (VEGF); HC linker long, LC linker long; also called DVD-Ig DVD495; DVD495H/DVD495L
With B13 the EC50 [1] was 0.0699 µM.

B14: DVD519 (bispecific antibody, human IgG1, kappa, lambda)
heavy: not shown
light: QAVVTQESALTTSPGETVTLTCRSSTGAVTTSNYANWVQEKPDHLFTGLIGGTNNRAPGVPARFSGSLIGDKAALTITGAQTEDEAIYFCALWYSNHWVFGGGTKLTVLGQPKAAPSVTLFPPDIQMTQSPSSLSASVGDRVTITCRASQDVSTAVAWYQQKPGKAPKLLIYSASFLYSGVPSRFSGSGSGTDFTLTISSLQPEDFATYYCQQSYTTPPTFGQGTKVEIKRTVAAPSVFIFPPSDEQLKSGTASVVCLLNNFYPREAKVQWKVDNALQSGNSQESVTEQDSKDSTYSLSSTLTLSKADYEKHKVYACEVTHQGLSSPVTKSFNRGEC
notes: DVD-Ig; N-term; AB073 (DLL4), C-term; AB070 (VEGF); HC linker long, LC linker long; also called DVD-Ig DVD519; DVD519H/DVD519L
B14 was tested, and the EC50 [1] was 0.0772 µM.

B15: DVD033 (RON (seq. 1) N-terminal / HGF (seq. 1) C-terminal DVD-Ig) (bispecific antibody, human IgG1, kappa)
heavy: not shown
light: DVVMTQSPLSLPVTPGEPASISCRSSQSLLHSNGFNYVDWYLQKPGQSPHLLIYFGSYRASGVPDRFSGSGSGTDFTLKISRVEAEDVGVYYCMQALQTPPWTFGQGTKVEIRRTVAAPDIQMTQSPSSVSASVGDRVTITCRASQGISSWLAWYQQKPGKAPNLLIYEASSLQSGVPSRFGGSGSGTDFTLTISSLQPEDFATYYCQQANGFPWTFGQGTKVEIKRTVAAPSVFIFPPSDEQLKSGTASVVCLLNNFYPREAKVQWKVDNALQSGNSQESVTEQDSKDSTYSLSSTLTLSKADYEKHKVYACEVTHQGLSSPVTKSFNRGEC
notes: also called DVD033H/DVD033L
B15 gave an IC50 (recombinant human HGF) of 0.0087 µM.
